Reference: patent publication US20250076311A1 (Chugai, published 2025)

T1: human FcγRIIaH extracellular domain with C-terminal His-tag (human, UniProt P12318 34-217)
T1 construct: also called human FcgRIIaH; FcγRIIa (type H)
T1 sequence: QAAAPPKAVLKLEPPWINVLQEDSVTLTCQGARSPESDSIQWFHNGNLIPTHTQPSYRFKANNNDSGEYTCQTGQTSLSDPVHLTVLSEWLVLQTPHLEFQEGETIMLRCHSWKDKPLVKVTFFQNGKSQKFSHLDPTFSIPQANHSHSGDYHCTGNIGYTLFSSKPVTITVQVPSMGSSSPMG

T2: cynomolgus monkey FcγRIIIaS extracellular domain with C-terminal His-tag (cynomolgus monkey, UniProt Q8SPW2 21-206 at identity 1.00))
T2 construct: also called cyno FcgRIIIaS; cynoFcγRIIIaS
T2 chain: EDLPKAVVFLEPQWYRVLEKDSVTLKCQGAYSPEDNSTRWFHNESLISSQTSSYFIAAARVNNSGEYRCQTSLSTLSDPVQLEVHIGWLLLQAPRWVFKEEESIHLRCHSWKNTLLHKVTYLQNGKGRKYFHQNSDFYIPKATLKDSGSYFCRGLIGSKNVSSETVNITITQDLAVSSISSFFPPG

T3: cynomolgus monkey FcγRIIa3 extracellular domain with C-terminal His-tag (cynomolgus monkey)
T3 construct: also called cyno FcgRIIa3; cynoFcγRIIa3
T3 chain: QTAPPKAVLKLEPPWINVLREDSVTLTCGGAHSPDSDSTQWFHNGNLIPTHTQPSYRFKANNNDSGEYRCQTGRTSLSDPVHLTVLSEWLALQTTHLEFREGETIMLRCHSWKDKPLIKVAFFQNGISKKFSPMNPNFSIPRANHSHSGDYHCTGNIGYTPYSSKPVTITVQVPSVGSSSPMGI


Assays:
Assay in all cases: SPR, KD(SG1)/KD(variant)
[1] = molecular target: T1, human FcγRIIaH extracellular domain …
[2] = molecular target: T2, cynomolgus monkey FcγRIIIaS …
[3] = molecular target: T3, cynomolgus monkey FcγRIIa3 …
Procedure: The kinetic analysis of interactions between these antibodies and FcγR was carried out using BIACORE® T200 or BIACORE® 4000 (GE Healthcare). HBS-EP+ (GE Healthcare) was used as the running buffer, and the measurement temperature was set to 25° C. […] After the measurement, the antibody captured on the chip was washed off by allowing reaction with 10 mM glycine-HCl, pH1.5 and 25 mM NaOH so that the chip was regenerated and used repeatedly. The sensorgrams obtained as measurement results were analyzed by the 1:1 Langmuir binding model using the BIACORE® Evaluation Software to calculate the binding rate constant ka (L/mol/s) and dissociation rate constant kd (1/s), and the dissociation constant KD (mol/L) was calculated from these values. […] Regarding such interactions, KD values were calculated using the following 1:1 binding model described in BIACORE® T100 Software Handbook BR1006-48 Edition AE.

| KD fold (SG1 = 1) [1] [fold] | KD fold (SG1 = 1) [2] [fold] | KD fold (SG1 = 1) [3] [fold] | Binder |
| --- | --- | --- | --- |
| 1.8 | 0.17 |  | M103205H795-MY535/M103202L889-SK1 (antibody, human IgG1, kappa, name in EU numbering, copies: 2 + 2) heavy: QVTLKESGPVLVKPTETLTLTCTVSGIDLSHDDISWVRQAPGKGLEWVGIISYAGSTYYASWAKGRLTISKDTSKNQVVLTMTNMDPVDTATYYCARGVPAYSHGGDLWGQGTLVTVSSASTKGPSVFPLAPSSKSTSGGTAALGCLVKDYFPEPVTVSWNSGALTSGVHTFPAVLQSSGLYSLSSVVTVPSSSLGTQTYICNVNHKPSNTKVDKKVEPKSCDKTHTCPPCPGPEWLTGPSVFLFPPKPKDTLMISRTPEVTCVVVDVSDEDPEVKFNWYVDGVEVHNAKTKPREEQYNSTYRVVSVLTVLHQDWLNGKEYKCKVSNKALPKPIEKTISKAKGQPREPQVYTLPPSREEMTKNQVSLTCLVKGFYPSDIAVEWESNGQPENNYKTTPPVLDSDGSFFLYSKLTVDKSRWQQGNVFSCSVMHEALHNHYTQKSLSLSP light: DIVMTQSPATLSLSPGERATLSCTSSQSVYHANWLSWFQQKPGQPPKLLIYWASTLAYGVPSRFSGSGSGTDFTLTISSLQPEDAATYYCAGGYGGGRYAFGQGTKVEIKRTVAAPSVFIFPPSDEQLKSGTASVVCLLNNFYPREAKVQWKVDNALQSGNSQESVTEQDSKDSTYSLSSTLTLSKADYEKHKVYACEVTHQGLSSPVTKSFNRGEC |
|  |  | 5.2 | MS1032LO06-MY205 (antibody, human IgG1, kappa, also called M103205H795-MY205; copies: 2 + 2) heavy: QVTLKESGPVLVKPTETLTLTCTVSGIDLSHDDISWVRQAPGKGLEWVGIISYAGSTYYASWAKGRLTISKDTSKNQVVLTMTNMDPVDTATYYCARGVPAYSHGGDLWGQGTLVTVSSASTKGPSVFPLAPSSKSTSGGTAALGCLVKDYFPEPVTVSWNSGALTSGVHTFPAVLQSSGLYSLSSVVTVPSSSLGTQTYICNVNHKPSNTKVDKKVEPKSCDKTHTCPPCPAPELLNGPSVFLFPPKPKDTLMISRTPEVTCVVVDVSDEDPEVKFNWYVDGVEVHNAKTKPREELYNSTYRVVSVLTVLHQDWLNGKEYKCKVSNKALPKPIEKTISKAKGQPREPQVYTLPPSREEMTKNQVSLTCLVKGFYPSDIAVEWESNGQPENNYKTTPPVLDSDGSFFLYSKLTVDKSRWQQGNVFSCSVMHEALHNHYTQKSLSLSP light: DIVMTQSPATLSLSPGERATLSCTSSQSVYHANWLSWFQQKPGQPPKLLIYWASTLAYGVPSRFSGSGSGTDFTLTISSLQPEDAATYYCAGGYGGGRYAFGQGTKVEIKRTVAAPSVFIFPPSDEQLKSGTASVVCLLNNFYPREAKVQWKVDNALQSGNSQESVTEQDSKDSTYSLSSTLTLSKADYEKHKVYACEVTHQGLSSPVTKSFNRGEC |
